Reference: IntAct's records for PubMed 24591568

B1: Rab11 family-interacting protein 5 (Homo sapiens), Q9BXF6 (parent)
chain: MALVRGAEPAAGPSRWLPTHVQVTVLRARGLRGKSSGAGSTSDAYTVIQVGREKYSTSVVEKTHGCPEWREECSFELPPGALDGLLRAQEADAGPAPWAASSAAACELVLTTMHRSLIGVDKFLGQATVALDEVFGAGRAQHTQWYKLHSKPGKKEKERGEIEVTIQFTRNNLSASMFDLSMKDKPRSPFSKIRDKMKGKKKYDLESASAILPSSAIEDPDLGSLGKMGKAKGFFLRNKLRKSSLTQSNTSLGSDSTLSSASGSLAYQGPGAELLTRSPSRSSWLSTEGGRDSAQSPKLFTHKRTYSDEANQMRVAPPRALLDLQGHLDAASRSSLCVNGSHIYNEEPQGPVRHRSSISGSLPSSGSLQAVSSRFSEEGPRSTDDTWPRGSRSNSSSEAVLGQEELSAQAKVLAPGASHPGEEEGARLPEGKPVQVATPIVASSEAVAEKEGARKEERKPRMGLFHHHHQGLSRSELGRRSSLGEKGGPILGASPHHSSSGEEKAKSSWFGLREAKDPTQKPSPHPVKPLSAAPVEGSPDRKQSRSSLSIALSSGLEKLKTVTSGSIQPVTQAPQAGQMVDTKRLKDSAVLDQSAKYYHLTHDELISLLLQRERELSQRDEHVQELESYIDRLLVRIMETSPTLLQIPPGPPK
partner: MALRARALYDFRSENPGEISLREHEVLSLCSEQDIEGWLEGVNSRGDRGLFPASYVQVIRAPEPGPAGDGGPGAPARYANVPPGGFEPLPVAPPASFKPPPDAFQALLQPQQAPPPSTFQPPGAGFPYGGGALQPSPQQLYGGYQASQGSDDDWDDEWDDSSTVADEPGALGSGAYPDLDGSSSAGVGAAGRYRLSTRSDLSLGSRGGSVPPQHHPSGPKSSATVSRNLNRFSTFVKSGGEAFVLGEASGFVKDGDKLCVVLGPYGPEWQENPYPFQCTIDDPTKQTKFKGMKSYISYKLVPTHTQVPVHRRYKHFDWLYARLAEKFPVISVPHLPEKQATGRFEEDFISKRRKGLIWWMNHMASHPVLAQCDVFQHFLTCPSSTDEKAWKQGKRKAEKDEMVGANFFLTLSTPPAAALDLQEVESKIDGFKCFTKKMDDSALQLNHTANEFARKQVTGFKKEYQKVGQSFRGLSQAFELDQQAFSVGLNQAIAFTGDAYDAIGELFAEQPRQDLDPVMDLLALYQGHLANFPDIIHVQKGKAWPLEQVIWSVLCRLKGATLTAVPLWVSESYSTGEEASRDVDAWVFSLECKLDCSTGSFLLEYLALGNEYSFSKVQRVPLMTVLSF
B2: Rab11 family-interacting protein 5 (Homo sapiens), Q9BXF6 (parent)
chain: B1 chain

Variants of: B1
Settings: with snx18_human SNX18, Q96RF0

T276A was tested. Which “effect of a mutation on the interaction” value did it give?
Its value is “increasing interaction”.

Variants of: B1
Settings: with snx18_human SNX18, Q96RF0
Remark: another data set of the same source

With T276D as the variant, how does the “effect of a mutation on the interaction” value read?
The value was “decreasing interaction”.

Variants of: B2
Settings: with kif3a_human KIF3A

With T276D as the variant, how does the “effect of a mutation on the interaction” value read?
Its value is “increasing interaction”.

Variants of: B2
Settings: with kif3a_human KIF3A
Remark: another data set of the same source

Which “effect of a mutation on the interaction” value does the source give for T276A here?
The value was “increasing interaction”.
